Test results reported in FireProtDB.
Where a chain is given by its changes, count along the chain named. “And” between values parts separate entries of the source, which are not always exact repeats. Equal values may be shown once.

Conditions: whole UniProt chain shown
[1] = Homo sapiens, pH 7.5, 0 °C, GdnHCl, CD, Na2HPO4 5 mM, transition: 2, reversible: No
[2] = Hordeum vulgare, pH 6.3, 25 °C, GdnHCl, DSC, MES-NaOH 50 mM, reversible: yes
[3] = Hordeum vulgare, pH 6.3, 25 °C, GdnHCl, Fluorescence, Sodium phosphate 20 mM
[4] = Hordeum vulgare, pH 7, 25 °C, GdnHCl, CD, Sodium phosphate 10 mM, reversible: yes
[5] = Hordeum vulgare, pH 7, 30 °C, GdnHCl, Fluorescence, MOPS 50 mM
[6] = Hordeum vulgare, pH 7.4, 25 °C, GdnHCl, CD, Tris 50 mM
[7] = Homo sapiens, pH 8, Thermal, CD, Tris-HCl 10 mM
[8] = Homo sapiens, pH 7.8, Thermal, DSC, Potassium phosphate 2 mM, reversible: yes
[9] = Homo sapiens, pH 7.5, 25 °C, Urea, CD, HEPES 20 mM, NaCl 100 mM, reversible: no
[10] = Homo sapiens, pH 7.5, 25 °C, Urea, CD, Sodium phosphate 15 mM, NaCl 100 mM, reversible: yes
[11] = Homo sapiens, pH 8.1, Thermal, DSC, Tris-HCl 20 mM
[12] = Homo sapiens, pH 8, 25 °C, GdnHCl, CD, Tris-Hcl, transition: 2
[13] = Homo sapiens, pH 8, 25 °C, GdnHCl, fluorescence, Tris-Hcl, transition: 2

B1: Apolipoprotein C-I wild type, P02654 (protein)
chain: MRLFLSLPVLVVVLSIVLEGPAPAQGTPDVSSALDKLKEFGNTLEDKARELISRIKQSELSAKMREWFSETFQKVKEKLKIDS
[1]
  denaturant m value: 3.7 kcal/mol/M
  denaturant midpoint (higher = more stable): 0.85 M
  unfolding free energy: 2.8 kcal/mol
Homo sapiens, pH 7.5, 25 °C, GdnHCl, CD, Na2HPO4 5 mM, transition: 2, reversible: No
  unfolding free energy: 1.8 kcal/mol
Homo sapiens, pH 7.8, Thermal, CD, Sodium phosphate 5 mM, reversible: yes
  Tm: 51 °C

B2: wild type, Q40059 (protein)
chain: MSSMEKKPEGVNIGAGDRQNQKTEWPELVGKSVEEAKKVILQDKPAAQIIVLPVGTIVTMEYRIDRVRLFVDRLDNIAQVPRVG
Hordeum vulgare, pH 4.15, Thermal, CD, acetate 10 mM, reversible: no
  Tm: 74.3 °C
[2]
  denaturant m value: 1.76 kcal/mol/M
  denaturant midpoint (higher = more stable): 4.05 M
  unfolding free energy: 7.16 kcal/mol
[3]
  denaturant m value: 1.96 kcal/mol/M and 2.01 kcal/mol/M
  unfolding free energy: 7.41 kcal/mol and 7.27 kcal/mol and 7.22 kcal/mol

B3: Subtilisin-chymotrypsin inhibitor-2A wild type, P01053 (protein)
chain: B2 chain with M4V, I13T, Q19H, Q21L, A46E, R73K
Hordeum vulgare, pH 4.2, 50 °C, GdnHCl, Fluorescence, Sodium acetate 50 mM, reversible: yes
  unfolding free energy: 5.5 kcal/mol
Hordeum vulgare, pH 6.3, 17 °C, GdnHCl, Fluorescence, MES 10 mM, reversible: yes
  unfolding free energy: 7.47 kcal/mol
Hordeum vulgare, pH 6.3, 21 °C, GdnHCl, Fluorescence, MES 10 mM, reversible: yes
  unfolding free energy: 7.28 kcal/mol
Hordeum vulgare, pH 6.3, 25 °C, GdnHCl, Fluorescence, MES 10 mM, reversible: yes
  unfolding free energy: 7.04 kcal/mol
Hordeum vulgare, pH 6.3, 29 °C, GdnHCl, Fluorescence, MES 10 mM, reversible: yes
  unfolding free energy: 6.76 kcal/mol
Hordeum vulgare, pH 6.3, 32 °C, GdnHCl, Fluorescence, MES 10 mM, reversible: yes
  unfolding free energy: 6.52 kcal/mol
[4]
  denaturant m value: 1.77 kcal/mol/M
  denaturant midpoint (higher = more stable): 3.97 M
  unfolding free energy: 7.04 kcal/mol
[5]
  denaturant m value: 1.92 kcal/mol/M
  unfolding free energy: 7.05 kcal/mol
[6]
  denaturant m value: 1.82 kcal/mol/M
  denaturant midpoint (higher = more stable): 4.29 M
  unfolding free energy: 7.81 kcal/mol

B4: Annexin A5 wild type, P08758 (protein)
chain: MAQVLRGTVTDFPGFDERADAETLRKAMKGLGTDEESILTLLTSRSNAQRQEISAAFKTLFGRDLLDDLKSELTGKFEKLIVALMKPSRLYDAYELKHALKGAGTNEKVLTEIIASRTPEELRAIKQVYEEEYGSSLEDDVVGDTSGYYQRMLVVLLQANRDPDAGIDEAQVEQDAQALFQAGELKWGTDEEKFITIFGTRSVSHLRKVFDKYMTISGFQIEETIDRETSGNLEQLLLAVVKSIRSIPAYLAETLYYAMKGAGTDDHTLIRVMVSRSEIDLFNIRKEFRKNFATSLYSMIKGDTSGDYKKALLLLCGEDD
[7]
  Tm: 51.9 °C
  unfolding enthalpy (van 't Hoff): 166 kcal/mol

B5: Cyclin-dependent kinase 4 inhibitor D wild type, P55273 (protein)
chain: MLLEEVRAGDRLSGAAARGDVQEVRRLLHRELVHPDALNRFGKTALQVMMFGSTAIALELLKQGASPNVQDTSGTSPVHDAARTGFLDTLKVLVEHGADVNVPDGTGALPIHLAVQEGHTAVVSFLAAESDLHRRDARGLTPLELALQRGAQDLVDILQGHMVAPL
Homo sapiens, pH 7.5, 15 °C, Urea, CD, Na-phospahate 20 mM, reversible: yes
  denaturant midpoint (higher = more stable): 2.9 M
Homo sapiens, pH 7.5, Thermal, CD, sodium phosphate 20 mM, reversible: yes
  Tm: 51.9 °C

B6: Superoxide dismutase [Mn], mitochondrial wild type, P04179 (protein)
chain: MLSRAVCGTSRQLAPVLGYLGSRQKHSLPDLPYDYGALEPHINAQIMQLHHSKHHAAYVNNLNVTEEKYQEALAKGDVTAQIALQPALKFNGGGHINHSIFWTNLSPNGGGEPKGELLEAIKRDFGSFDKFKEKLTAASVGVQGSGWGWLGFNKERGHLQIAACPNQDPLQGTTGLIPLLGIDVWEHAYYLQYKNVRPDYLKAIWNVINWENVTERYMACKK
[8]
  Tm: 70 °C
  unfolding enthalpy (calorimetric): 142 kcal/mol

B7: Cyclin-dependent kinase inhibitor 2A wild type, P42771 (protein)
chain: MEPAAGSSMEPSADWLATAAARGRVEEVRALLEAGALPNAPNSYGRRPIQVMMMGSARVAELLLLHGAEPNCADPATLTRPVHDAAREGFLDTLVVLHRAGARLDVRDAWGRLPVDLAEELGHRDVARYLRAAAGGTRGSNHARIDAAEGPSDIPD
[9]
  denaturant midpoint (higher = more stable): 2.74 M
  unfolding free energy: 2.7 kcal/mol
Homo sapiens, pH 7.5, 25 °C, Urea, CD, MOPS 10 mM, NaF 50 mM, reversible: Yes
  unfolding free energy: 2.3 kcal/mol
[10]
  denaturant m value: 2 kcal/mol/M
  denaturant midpoint (higher = more stable): 1.9 M
Homo sapiens, pH 7.5, Thermal, CD, HEPES 50 mM, reversible: no
  Tm: 41.5 °C

B8: Cystatin-A wild type, P01040 (protein)
chain: MIPGGLSEAKPATPEIQEIVDKVKPQLEEKTNETYGKLEAVQYKTQVVAGTNYYIKVRAGDNKYMHLKVFKSLPGQNEDLVLTGYQVDKNKDDELTGF
[11]
  Tm: 94.5 °C
  heat capacity change of unfolding: 1.5 kcal/mol/K
  unfolding enthalpy (calorimetric): 122 kcal/mol

B9: Sphingosine kinase 1 wild type, Q9NYA1 (protein)
chain: MDPAGGPRGVLPRPCRVLVLLNPRGGKGKALQLFRSHVQPLLAEAEISFTLMLTERRNHARELVRSEELGRWDALVVMSGDGLMHEVVNGLMERPDWETAIQKPLCSLPAGSGNALAASLNHYAGYEQVTNEDLLTNCTLLLCRRLLSPMNLLSLHTASGLRLFSVLSLAWGFIADVDLESEKYRRLGEMRFTLGTFLRLAALRTYRGRLAYLPVGRVGSKTPASPVVVQQGPVDAHLVPLEEPVPSHWTVVPDEDFVLVLALLHSHLGSEMFAAPMGRCAAGVMHLFYVRAGVSRAMLLRLFLAMEKGRHMEYECPYLVYVPVVAFRLEPKDGKGVFAVDGELMVSEAVQGQVHPNYFWMVSGCVEPPPSWKPQQMPPPEEPL
[12]
  denaturant m value: 0.42 kcal/mol/M
  denaturant midpoint (higher = more stable): 2.86 M
  unfolding free energy: 1.32 kcal/mol
[13]
  denaturant m value: 0.6 kcal/mol/M
  denaturant midpoint (higher = more stable): 2.94 M
  unfolding free energy: 1.75 kcal/mol
